Key:
[1] = biological target: T1, antibody-half molecule A1 with PF1H and PF1L-k0 (PF1H-DA303v2/PF1L-k0); assay: SPR (Biacore T200), about 50 RU of half molecule A captured on chip-bound biotinylated antigen peptide, half molecule B at 2.5 mg/mL as analyte
Method: (§1) The interaction between the obtained antibody-half molecules was analyzed using Biacore (registered trademark) T200. Biotin CAPture Kit, Series S (GE Healthcare) was used for the measurement, and HBS-EP+10X (GE Healthcare) diluted 1/10th was used as a running buffer. The measurement temperature was 25° C. For the sensor chip, Series S Sensor Chip CAP (GE Healthcare) onto which previously-biotinylated antigen peptides were allowed to interact and thereby immobilized was used. These chips were allowed to capture approximately 50 RU of the antibody-half molecule A of interest and then interact with the antibody-half molecule B of interest diluted with the running buffer at 2.5 mg/mL for 180 seconds at a flow rate of 30 μL/min, and measurement was carried out. The molar binding ratio was calculated based on the following Formula 2. The antibody-half molecule A captured on the chip was washed as described in the instructions attached to the kit, and the chip was regenerated and reused.
(§2) At this time, for the antibody-half molecules to be captured, PF1H (SEQ ID NO: 22), which is the H chain variable region portion of the anti-human IL6 receptor antibody described in WO 2009/041621, was used as the H chain variable region portion, PF1L (SEQ ID NO: 23), which is the L chain variable region portion of the anti-human IL6 receptor antibody described in WO 2009/041621, was used as the L chain variable region portion, and k0 was used as the L chain constant region portion. In addition, for the antibody-half molecules used as analytes, IC17H (SEQ ID NO: 24), which is the anti-KLH antibody described in WO 2015/174439, was used as the H chain variable region, IC17L (SEQ ID NO: 25), which is the anti-KLH antibody described in WO 2015/174439, was used as the L chain variable region, and k0 was used as the L chain constant region.

[2] = biological target: T1, antibody-half molecule A1 with PF1H and …; assay: SPR (Biacore T200), about 50 RU of half molecule A captured on chip-bound biotinylated antigen peptide, half molecule B at 2.5 mg/mL as analyte (Example 10)
Method: as §1
(§3) At this time, for the antibody-half molecule to be captured, PF1H (SEQ ID NO: 22), which is the H chain variable region portion of the anti-human IL6 receptor antibody described in WO 2009/041621, was used as the H chain variable region portion, PF1L (SEQ ID NO: 23), which is the L chain variable region portion of the anti-human IL6 receptor antibody described in WO 2009/041621, was used as the L chain variable region portion, and k0 was used as the L chain constant region portion. In addition, for the antibody-half molecules used as analytes, IC17H (SEQ ID NO: 24), which is the anti-KLH antibody described in WO 2015/174439, was used as the H chain variable region, IC17L (SEQ ID NO: 25), which is the anti-KLH antibody described in WO 2015/174439, was used as the L chain variable region, and k0 was used as L chain constant region.

[3] = biological target: antibody-half molecule A2 with PF1H and PF1L-k0 (PF1H-DA402v2/PF1L-k0); assay: SPR (Biacore T200), about 50 RU of half molecule A captured on chip-bound biotinylated antigen peptide, half molecule B at 2.5 mg/mL as analyte
Method: as §1, §2

[4] = biological target: antibody-half molecule A5 with PF1H and PF1L-k0 (PF1H-DA430v2/PF1L-k0); assay: as above
Method: as §1, §2

[5] = biological target: antibody-half molecule A4 with PF1H and PF1L-k0 (PF1H-DA424v2/PF1L-k0); assay: as above
Method: as §1, §2

[6] = biological target: antibody-half molecule A3 with PF1H and PF1L-k0 (PF1H-DA405v2/PF1L-k0); assay: as above
Method: as §1, §2

[7] = biological target: antibody-half molecule A6 with PF1H and PF1L-k0 (PF1H-DA303v2.n.n/PF1L-k0); assay: SPR (Biacore T200), about 50 RU of half molecule A captured on chip-bound biotinylated antigen peptide, half molecule B at 2.5 mg/mL as analyte (Example 10)
Method: as §1, §3

T1 sequence (heavy, as listed by the source): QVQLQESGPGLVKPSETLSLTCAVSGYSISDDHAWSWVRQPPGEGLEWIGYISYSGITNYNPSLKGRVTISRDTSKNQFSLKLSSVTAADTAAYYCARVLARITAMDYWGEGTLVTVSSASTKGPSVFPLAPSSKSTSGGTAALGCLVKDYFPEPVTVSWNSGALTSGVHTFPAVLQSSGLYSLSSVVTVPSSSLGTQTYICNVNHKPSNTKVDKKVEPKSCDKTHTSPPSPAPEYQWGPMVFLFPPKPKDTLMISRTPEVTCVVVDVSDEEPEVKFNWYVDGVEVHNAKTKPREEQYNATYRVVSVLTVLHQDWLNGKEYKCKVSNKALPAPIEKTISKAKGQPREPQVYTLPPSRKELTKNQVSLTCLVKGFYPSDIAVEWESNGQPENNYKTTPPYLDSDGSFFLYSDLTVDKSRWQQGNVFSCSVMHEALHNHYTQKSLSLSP
Sequence of antibody-half molecule A3 with PF1H and PF1L-k0 (PF1H-DA405v2/PF1L-k0) (heavy, as listed by the source): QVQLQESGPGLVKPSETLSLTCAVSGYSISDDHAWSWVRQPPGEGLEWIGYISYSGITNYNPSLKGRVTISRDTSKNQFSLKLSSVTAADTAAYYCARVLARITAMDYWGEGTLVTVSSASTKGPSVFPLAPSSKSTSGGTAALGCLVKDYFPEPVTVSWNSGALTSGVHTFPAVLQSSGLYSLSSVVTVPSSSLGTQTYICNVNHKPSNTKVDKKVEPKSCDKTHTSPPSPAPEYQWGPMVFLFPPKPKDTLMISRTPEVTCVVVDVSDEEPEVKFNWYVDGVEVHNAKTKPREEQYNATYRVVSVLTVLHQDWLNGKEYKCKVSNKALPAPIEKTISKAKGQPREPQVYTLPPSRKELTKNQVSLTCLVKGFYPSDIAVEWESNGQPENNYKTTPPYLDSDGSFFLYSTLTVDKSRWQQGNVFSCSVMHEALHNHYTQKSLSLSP
Sequence of antibody-half molecule A4 with PF1H and PF1L-k0 (PF1H-DA424v2/PF1L-k0) (heavy, as listed by the source): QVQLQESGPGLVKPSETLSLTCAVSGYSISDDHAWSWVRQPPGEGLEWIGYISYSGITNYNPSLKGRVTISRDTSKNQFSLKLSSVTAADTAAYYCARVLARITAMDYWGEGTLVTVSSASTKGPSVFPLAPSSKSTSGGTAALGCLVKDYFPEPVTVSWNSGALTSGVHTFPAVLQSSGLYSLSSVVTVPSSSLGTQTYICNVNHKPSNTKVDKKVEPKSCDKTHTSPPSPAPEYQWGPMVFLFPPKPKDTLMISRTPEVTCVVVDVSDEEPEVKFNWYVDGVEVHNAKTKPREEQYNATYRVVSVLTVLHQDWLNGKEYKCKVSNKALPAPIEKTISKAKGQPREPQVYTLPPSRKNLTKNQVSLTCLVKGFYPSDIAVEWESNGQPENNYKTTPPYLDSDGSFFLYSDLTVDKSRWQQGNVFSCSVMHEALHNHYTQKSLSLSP
Sequence of antibody-half molecule A5 with PF1H and PF1L-k0 (PF1H-DA430v2/PF1L-k0) (heavy, as listed by the source): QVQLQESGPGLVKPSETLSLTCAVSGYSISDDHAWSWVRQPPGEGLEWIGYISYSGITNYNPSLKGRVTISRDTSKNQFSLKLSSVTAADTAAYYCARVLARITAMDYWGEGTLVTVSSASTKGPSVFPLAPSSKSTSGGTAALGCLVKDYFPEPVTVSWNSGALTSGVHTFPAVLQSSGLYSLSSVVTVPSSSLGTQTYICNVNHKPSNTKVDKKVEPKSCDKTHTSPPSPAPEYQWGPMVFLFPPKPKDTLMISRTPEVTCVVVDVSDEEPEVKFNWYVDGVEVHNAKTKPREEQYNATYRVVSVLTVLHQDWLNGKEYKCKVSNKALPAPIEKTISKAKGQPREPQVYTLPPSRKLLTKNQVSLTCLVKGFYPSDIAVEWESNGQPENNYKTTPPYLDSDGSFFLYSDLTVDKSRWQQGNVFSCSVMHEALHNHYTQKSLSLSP
Sequence of antibody-half molecule A6 with PF1H and PF1L-k0 (PF1H-DA303v2.n.n/PF1L-k0) (heavy, as listed by the source): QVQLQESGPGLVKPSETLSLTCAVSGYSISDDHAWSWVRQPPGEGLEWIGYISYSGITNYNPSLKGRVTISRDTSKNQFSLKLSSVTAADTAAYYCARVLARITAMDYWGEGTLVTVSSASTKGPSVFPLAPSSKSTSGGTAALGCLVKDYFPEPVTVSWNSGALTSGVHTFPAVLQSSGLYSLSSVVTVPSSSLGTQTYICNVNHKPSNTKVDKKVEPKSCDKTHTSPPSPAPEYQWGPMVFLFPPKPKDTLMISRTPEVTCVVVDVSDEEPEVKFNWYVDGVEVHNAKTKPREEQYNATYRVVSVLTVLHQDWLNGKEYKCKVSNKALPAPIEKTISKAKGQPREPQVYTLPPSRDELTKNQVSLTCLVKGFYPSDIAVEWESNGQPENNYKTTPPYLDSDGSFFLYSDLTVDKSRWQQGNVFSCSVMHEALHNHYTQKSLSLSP
Sequence of antibody-half molecule A2 with PF1H and PF1L-k0 (PF1H-DA402v2/PF1L-k0) (heavy, as listed by the source): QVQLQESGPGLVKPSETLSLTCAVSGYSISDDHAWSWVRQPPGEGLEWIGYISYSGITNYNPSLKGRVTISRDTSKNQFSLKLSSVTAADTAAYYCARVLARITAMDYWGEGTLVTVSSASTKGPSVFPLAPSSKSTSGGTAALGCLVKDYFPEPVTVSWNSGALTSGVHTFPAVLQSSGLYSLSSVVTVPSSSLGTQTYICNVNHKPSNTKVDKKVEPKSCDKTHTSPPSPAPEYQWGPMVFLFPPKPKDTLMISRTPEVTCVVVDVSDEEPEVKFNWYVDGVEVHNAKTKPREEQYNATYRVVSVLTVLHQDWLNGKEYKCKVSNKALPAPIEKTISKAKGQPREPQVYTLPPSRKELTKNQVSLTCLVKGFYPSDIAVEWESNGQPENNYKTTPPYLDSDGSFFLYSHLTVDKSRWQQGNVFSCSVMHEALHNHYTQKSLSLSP

B1: antibody-half molecule B1 with IC17H and IC17L-k0 (IC17H-DB220v2/IC17L-k0) (antibody, human IgG1, kappa)
heavy: QVQLQQSGPQLVRPGASVKISCKASGYSFTSYWMHWVNQRPGQGLEWIGMIDPSYSETRLNQKFKDKATLTVDKSSSTAYMQLSSPTSEDSAVYYCALYGNYFDYWGQGTTLTVSSASTKGPSVFPLAPSSKSTSGGTAALGCLVKDYFPEPVTVSWNSGALTSGVHTFPAVLQSSGLYSLSSVVTVPSSSLGTQTYICNVNHKPSNTKVDKKVEPKSCDKTHTSPPSPAPELLGGPSVFLFPPKPKDTLMISRTPEVTCVVVDVSHEEPEVKFNWYVDGVEVHNAKTKPREEQYNSTYRVVSVLTVLHQDWLNGKEYKCKVSNDALPMPIEETISKAKGQPREPQVYTLPPSRDELTKNQVSLTCLVKGFYPSDIAVEWESNGQPENNYKTTPPYLDSDGSFFLYSDLTVDKSRWQQGNVFSCSVMHEALHNHYTQESLSLSP
light: DIQMTQSSSSFSVSLGDRVTITCKASEDIYNRLAWYQQKPGNAPRLLISGATSLETGVPSRFSGSGSGKDYTLSITSLQTEDVATYYCQQYWSTPYTFGGGTKLEVKRTVAAPSVFIFPPSDEQLKSGTASVVCLLNNFYPREAKVQWKVDNALQSGNSQESVTEQDSKDSTYSLSSTLTLSKADYEKHKVYACEVTHQGLSSPVTKSFNRGEC
[1]
  molar binding ratio: 0.38 molar ratio
[2]
  molar binding ratio: 0.54 molar ratio

B2: antibody-half molecule B2 with IC17H and IC17L-k0 (IC17H-DB402v2/IC17L-k0) (antibody, human IgG1, kappa)
heavy: QVQLQQSGPQLVRPGASVKISCKASGYSFTSYWMHWVNQRPGQGLEWIGMIDPSYSETRLNQKFKDKATLTVDKSSSTAYMQLSSPTSEDSAVYYCALYGNYFDYWGQGTTLTVSSASTKGPSVFPLAPSSKSTSGGTAALGCLVKDYFPEPVTVSWNSGALTSGVHTFPAVLQSSGLYSLSSVVTVPSSSLGTQTYICNVNHKPSNTKVDKKVEPKSCDKTHTSPPSPAPELLGGPSVFLFPPKPKDTLMISRTPEVTCVVVDVSHEEPEVKFNWYVDGVEVHNAKTKPREEQYNSTYRVVSVLTVLHQDWLNGKEYKCKVSNDALPMPIEETISKAKGQPREPQVYTLPPSRDELTKNQVSLTCLVKGFYPSDIAVEWESNGQPENNYKTTPPYLDSDGSFFLYSHLTVDKSRWQQGNVFSCSVMHEALHNHYTQESLSLSP
light: DIQMTQSSSSFSVSLGDRVTITCKASEDIYNRLAWYQQKPGNAPRLLISGATSLETGVPSRFSGSGSGKDYTLSITSLQTEDVATYYCQQYWSTPYTFGGGTKLEVKRTVAAPSVFIFPPSDEQLKSGTASVVCLLNNFYPREAKVQWKVDNALQSGNSQESVTEQDSKDSTYSLSSTLTLSKADYEKHKVYACEVTHQGLSSPVTKSFNRGEC
[3]
  molar binding ratio: 0.63 molar ratio

B3: antibody-half molecule B5 with IC17H and IC17L-k0 (IC17H-DB430v2/IC17L-k0) (antibody, human IgG1, kappa)
heavy: QVQLQQSGPQLVRPGASVKISCKASGYSFTSYWMHWVNQRPGQGLEWIGMIDPSYSETRLNQKFKDKATLTVDKSSSTAYMQLSSPTSEDSAVYYCALYGNYFDYWGQGTTLTVSSASTKGPSVFPLAPSSKSTSGGTAALGCLVKDYFPEPVTVSWNSGALTSGVHTFPAVLQSSGLYSLSSVVTVPSSSLGTQTYICNVNHKPSNTKVDKKVEPKSCDKTHTSPPSPAPELLGGPSVFLFPPKPKDTLMISRTPEVTCVVVDVSHEEPEVKFNWYVDGVEVHNAKTKPREEQYNSTYRVVSVLTVLHQDWLNGKEYKCKVSNDALPMPIEETISKAKGQPREPQVYTLPPSRDLLTKNQVSLTCLVKGFYPSDIAVEWESNGQPENNYKTTPPYLDSDGSFFLYSDLTVDKSRWQQGNVFSCSVMHEALHNHYTQESLSLSP
light: DIQMTQSSSSFSVSLGDRVTITCKASEDIYNRLAWYQQKPGNAPRLLISGATSLETGVPSRFSGSGSGKDYTLSITSLQTEDVATYYCQQYWSTPYTFGGGTKLEVKRTVAAPSVFIFPPSDEQLKSGTASVVCLLNNFYPREAKVQWKVDNALQSGNSQESVTEQDSKDSTYSLSSTLTLSKADYEKHKVYACEVTHQGLSSPVTKSFNRGEC
[4]
  molar binding ratio: 0.27 molar ratio

B4: antibody-half molecule B4 with IC17H and IC17L-k0 (IC17H-DB424v2/IC17L-k0) (antibody, human IgG1, kappa)
heavy: QVQLQQSGPQLVRPGASVKISCKASGYSFTSYWMHWVNQRPGQGLEWIGMIDPSYSETRLNQKFKDKATLTVDKSSSTAYMQLSSPTSEDSAVYYCALYGNYFDYWGQGTTLTVSSASTKGPSVFPLAPSSKSTSGGTAALGCLVKDYFPEPVTVSWNSGALTSGVHTFPAVLQSSGLYSLSSVVTVPSSSLGTQTYICNVNHKPSNTKVDKKVEPKSCDKTHTSPPSPAPELLGGPSVFLFPPKPKDTLMISRTPEVTCVVVDVSHEEPEVKFNWYVDGVEVHNAKTKPREEQYNSTYRVVSVLTVLHQDWLNGKEYKCKVSNDALPMPIEETISKAKGQPREPQVYTLPPSRDNLTKNQVSLTCLVKGFYPSDIAVEWESNGQPENNYKTTPPYLDSDGSFFLYSDLTVDKSRWQQGNVFSCSVMHEALHNHYTQESLSLSP
light: DIQMTQSSSSFSVSLGDRVTITCKASEDIYNRLAWYQQKPGNAPRLLISGATSLETGVPSRFSGSGSGKDYTLSITSLQTEDVATYYCQQYWSTPYTFGGGTKLEVKRTVAAPSVFIFPPSDEQLKSGTASVVCLLNNFYPREAKVQWKVDNALQSGNSQESVTEQDSKDSTYSLSSTLTLSKADYEKHKVYACEVTHQGLSSPVTKSFNRGEC
[5]
  molar binding ratio: 0.25 molar ratio

B5: antibody-half molecule B3 with IC17H and IC17L-k0 (IC17H-DB405v2/IC17L-k0) (antibody, human IgG1, kappa)
heavy: QVQLQQSGPQLVRPGASVKISCKASGYSFTSYWMHWVNQRPGQGLEWIGMIDPSYSETRLNQKFKDKATLTVDKSSSTAYMQLSSPTSEDSAVYYCALYGNYFDYWGQGTTLTVSSASTKGPSVFPLAPSSKSTSGGTAALGCLVKDYFPEPVTVSWNSGALTSGVHTFPAVLQSSGLYSLSSVVTVPSSSLGTQTYICNVNHKPSNTKVDKKVEPKSCDKTHTSPPSPAPELLGGPSVFLFPPKPKDTLMISRTPEVTCVVVDVSHEEPEVKFNWYVDGVEVHNAKTKPREEQYNSTYRVVSVLTVLHQDWLNGKEYKCKVSNDALPMPIEETISKAKGQPREPQVYTLPPSRDELTKNQVSLTCLVKGFYPSDIAVEWESNGQPENNYKTTPPYLDSDGSFFLYSTLTVDKSRWQQGNVFSCSVMHEALHNHYTQESLSLSP
light: DIQMTQSSSSFSVSLGDRVTITCKASEDIYNRLAWYQQKPGNAPRLLISGATSLETGVPSRFSGSGSGKDYTLSITSLQTEDVATYYCQQYWSTPYTFGGGTKLEVKRTVAAPSVFIFPPSDEQLKSGTASVVCLLNNFYPREAKVQWKVDNALQSGNSQESVTEQDSKDSTYSLSSTLTLSKADYEKHKVYACEVTHQGLSSPVTKSFNRGEC
[6]
  molar binding ratio: 0.54 molar ratio

B6: antibody-half molecule B6 with IC17H and IC17L-k0 (IC17H-DB220v2.n.n/IC17L-k0) (antibody, human IgG1, kappa)
heavy: QVQLQQSGPQLVRPGASVKISCKASGYSFTSYWMHWVNQRPGQGLEWIGMIDPSYSETRLNQKFKDKATLTVDKSSSTAYMQLSSPTSEDSAVYYCALYGNYFDYWGQGTTLTVSSASTKGPSVFPLAPSSKSTSGGTAALGCLVKDYFPEPVTVSWNSGALTSGVHTFPAVLQSSGLYSLSSVVTVPSSSLGTQTYICNVNHKPSNTKVDKKVEPKSCDKTHTSPPSPAPELLGGPSVFLFPPKPKDTLMISRTPEVTCVVVDVSHEEPEVKFNWYVDGVEVHNAKTKPREEQYNSTYRVVSVLTVLHQDWLNGKEYKCKVSNDALPMPIEETISKAKGQPREPQVYTLPPSRDELTKNQVSLTCLVKGFYPSDIAVEWESNGQPENNYKTTPPYLDSDGSFFLYSDLTVDKSRWQQGNVFSCSVMHEALHNHYTQKSLSLSP
light: DIQMTQSSSSFSVSLGDRVTITCKASEDIYNRLAWYQQKPGNAPRLLISGATSLETGVPSRFSGSGSGKDYTLSITSLQTEDVATYYCQQYWSTPYTFGGGTKLEVKRTVAAPSVFIFPPSDEQLKSGTASVVCLLNNFYPREAKVQWKVDNALQSGNSQESVTEQDSKDSTYSLSSTLTLSKADYEKHKVYACEVTHQGLSSPVTKSFNRGEC
[7]
  molar binding ratio: 0.42 molar ratio

Reference: US20240417464A1 (published 2024)
